assay: yeast display, Sf9 membrane polyspecificity reagent, FACS + sequencing; frameworks hold sequencing errors
Summary of the method: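 A synthetic nanobody library was expressed on Saccharomyces cerevisiae BJ5465 by galactose induction for 36–48 hours. The library was stained for 1 hour at 4 °C with 10% biotinylated, detergent-solubilized Sf9 membrane reagent and enriched with streptavidin microbeads before FACS. Low and high (top ~1%) gates were set on anti-HA fluorescence for expression and streptavidin fluorescence for reagent binding, and each polyreactivity label reflects the gate of origin.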

| Sequence | polyreactivity (PSR sort gate) |
| --- | --- |
| QVHLVESGGGLVHAGGSLRLSCAASGIIFSYYAMGWYRQAPVKERELVAAISRSGVRTYFSDSVKGRFTISRDNAKNTVYLQMNSLKPEDTSVYYCNAEFSPYPYDYWGQGTQVTVSS | high polyreactivity |
| QVHLVESGGGLVHAGGSLRLSCAASGSTFDYYAMGWYRQEHGKERELVAAISSGGSTYYADSVKGSFTISRDNPKNTVYLQMNSRKPEDTAVYYCAAVYRGQFSRYDYWGQGTQVTVSS | low polyreactivity |
| QVHLVESGGGLVHAGGSLRLSCAASGSTFSYYTMGWYRQAPGKERELVAAITRRGDSTYADSVKGRFTISRDNAKNTVYLQMNSLKPEDTAVYYCAADASVGVSGMDYWGQGTQVTVSS | low polyreactivity |
| QVHLVESGGGLVHAGGSLRVSCAASGYTFHRYAMGWYRQAPGKERELVAAITRGGGSTRYADSVKGRFTISRDNAKYTVYLQMNSLKPEDTAVYYCAAERRTPGRTTYYYWGQGTQVSVSS | high polyreactivity |
| QVHLVESGGGLVKAGGSLRLSCAASGLTFSYYARGWSRQPPGKEMELVAANSWSGGSTYYADSVKGRFTISRDNAKNTVYLQMNSLKPEDTAVYDCAVRPSDGVIFSKGYDHWGQGTQVTVSS | low polyreactivity |
| QVHLVESGGGLVKAGGSLRLSCAASGRIFYTYAMGWYRQAPGKERELVAAISRSGGRTYYADSVKGRFTISRDNGKNTVYLQMNSLKPEDNAVYYCNAVENWLFSSHDYWGQGTQVTVSS | low polyreactivity |
| QVHLVESGGGLVKAGGSLRLSCSASGSIFTYNAMGWYRQAPGKERELVAAISSRGTSTYYSDSVKGRFTISRDNAKNTVYLQMNSLKPEDTAVYYCAAVWVSQRRPWGNTNNYWGQGTQVTVSS | high polyreactivity |
| QVHLVESGGGLVLAGGSLRLSCAASGSTFGINAMGWYRQAPGKEREFVASISWSTGTTYYADSVKGRFTISRDNAKNTVYLQMNSLKPEDTAVYSCAAVDYYWGYEQWYDYWGQGTQVTVSS | high polyreactivity |
| QVHLVESGGGLVLAGGSLRLSCAASGSTLHLYAMGWYRQAPGKERELVADITSGGDTYYADSVKGRFTISRDNAKNTVYFQMNSLKPEDTAVYYCAAGPVYDWRGGALRYYYWGQGTQVSVSS | high polyreactivity |
| QVHLVESGGGLVPAGGSLRLTCAASGSTLWFNAMRWYRQAPGKERELVAAISFYSGSTYYSDSVKGRFTISRDNANNTVYLQMNSLKPEDTAVYYCAARRRWWGYDYWGQATQVTVSS | high polyreactivity |
| QVHLVESGGGLVQAAGSLRLSCAASGFIFYYYAMGWYRQAPGKERELVAAISRSGGRTYYADSVKGRFTISRDNAKNTVYLQMNSLKPEDTAVYYCAAPGYQTVGMGYWGQGTQVTVSS | high polyreactivity |
| QVHLVESGGGLVQAGASLRLSCAASGITFRFNAMGWYRQAPGKEREFVAAITYSGDSTYYADSVKGRFTISRDNAKNTVYLQMNSLKPEDTAVYYCAADYYAISRRMFYYWGQGTQVTVSS | low polyreactivity |
| QVHLVESGGGLVQAGGRLRLSCAASGFTFYKYAMGWYRQAPGKERELVAAITWSGGRTYYADSVKGRFTISRDNAKNTVYLQMNSLKPEDTAVYYCAADLHKLARYDYWGQGTQVTVSS | high polyreactivity |
| QVHLVESGGGLVQAGGSFRLSCAASGSIFDGYSMGWYRQAPGKERELVAAISYRVGRTYYADSVKGRFTISRDNAKNTVYLQMNSLKPEDTAVYYCAAGYYGNGVFEYDYWGQGTQVTVSS | low polyreactivity |
| QVHLVESGGGLVQAGGSHRLSCAASGRIFRGYAMGWYIQAPGKERELVAAISGRGGRTYYADSVKGRFTISRDNAKNTVYLQMNSLKPEDTAVYYCNARRGRRGYYGNGDYWGQGTQVTVSS | high polyreactivity |
| QVHLVESGGGLVQAGGSHRLSCAASGRTFDNYAMGWYRQAPGKERELVAAISRRGGSTYYADSVKGRFTISRDNAKNTVYLQMNSLKPEDTAVYYCAADRLVWKPTVVGFYYWGQGTQVTVSS | high polyreactivity |
| QVHLVESGGGLVQAGGSIRLSCAASGRTLDPYTMGWYRQAPGKERELVAAITSSGGRTTYADSVKGRFTISRDNAKITVYLQMNSLKPEDTAVYYCAKKFRPVYRSQYLRYSWGQGTQVTVSS | low polyreactivity |
| QVHLVESGGGLVQAGGSLCLSCAASGSIFINAMGWYRQAPGKERELVATIRWRGGTTYYADSVKGRFTISRDNAKNTVYLQMNSLKPEDTAVYYCAARVHSVHYPYYYWGQGTQVTVSS | low polyreactivity |
| QVHLVESGGGLVQAGGSLLLSCAASGIIFSYYAMGWYRQAPGKERELVAAISRSGVRPYYADSVKGRFTISRDNAKHTVYLQMYSLKPEDTAVYYCNAEFSPYPYDYWGQGTQVSVSS | high polyreactivity |
| QVHLVESGGGLVQAGGSLRLICAASGRIYTFYAMGWYRQAPGKERHLVAAIRGSSVSTYYADSVKGRFTISRDNAKITVYLQMNSLKPEDTAVYYCAADIYLWNSEYYYWGQGTQVTVSS | low polyreactivity |
| QVHLVESGGGLVQAGGSLRLRCAASGSTFEYNAMGWYRPAPGKERELVASSTNYADSVKGRFTISRDNAKNTVSLQMNSLKPEDTAVYYCSREQGVNRNHDYWVQGTQVTVSS | low polyreactivity |
| QVHLVESGGGLVQAGGSLRLRSPASGRTFDDNAMGWYRQAPGKESEMVAGITDNGGGTNYADSVKGRFTISRDNAKNTVYLQMSSLKPEDTAVYYCAADGKLVYVNGYNLYYWGQGTQVTVSS | low polyreactivity |

| Sequence | polyreactivity (PSR sort gate) |
| --- | --- |
| QVHLVESGGGLVQAGGSLRLSCAASAFIFNRNAMGGYRQAHGKERELVAAISRSGGRTYYADSVKGRFTISRDHAKNTVYIQMNSLKPEDTAVYYCATEGYHGEFDYWGQGTQVTVSS | high polyreactivity |
| QVHLVESGGGLVQAGGSLRLSCAASGFIFDPYGMGWYRQAPGKERELVAAISSRVGSTYYADSVKGRFTISRDNAKNTVYLQLNSLKPEDTAVYYCAADNDGVGYWVYEEMDYWGQGTQVTVSS | low polyreactivity |
| QVHLVESGGGLVQAGGSLRLSCAASGFIFHSYAMGWYRQAPGKERELVASISRGGGSTYYADSVKGRFTISRDNAKNTVYLQMNSLKTEDTAVYYCNAVWRSNSRFDYWGQGTQVTVSS | high polyreactivity |
| QVHLVESGGGLVQAGGSLRLSCAASGFIFRYYAMGWYRQAPGKEREMVAAISWSGGSTYYADSVKGRFTISRDNAKNTVYLQMNSLKPEDTAVYYCAADRYAILFYAEDYWGQGTQVTVSS | low polyreactivity |
| QVHLVESGGGLVQAGGSLRLSCAASGFIFTYYTMGWYRQAPGKERELVAAISRSGARTYYADSVKGRFTISRDNAKNTVYLQMNSLKPEDTAVYYCNTDISYGYYPVGYDYWGQGTQVTVSS | high polyreactivity |
| QVHLVESGGGLVQAGGSLRLSCAASGFIFYYYTMGWYRQAPGKEREFVAAITYSGGRTYYADSVKGRFTISRDNAKNSVYLQMNSLKPEDTSVYYCAAVPRYGPSYRMDYWGQGTQVTVSS | high polyreactivity |
| QVHLVESGGGLVQAGGSLRLSCAASGFTFDAYAMGWYRQAPGKERELVAAITRRSGSTYYADSVKGRFTISRDNAKNTVYLQMNSLKPEDTAVYYCAAVSVHRLGSTFGYWGQGTQVTVSS | high polyreactivity |
| QVHLVESGGGLVQAGGSLRLSCAASGFTFKDYAMGWYRQAPGKHTELVAAISYSGGSTYYADSVKGRFTISRDNAKNTVYLQMYSLKPEDTAVYYCNKGYPYVAYDYWGQGTQVTVSS | high polyreactivity |
| QVHLVESGGGLVQAGGSLRLSCAASGFTFRVYAMGWYRPAPGKERELVAAITKRGGSTYYADSVKGRFTISRDNAKNTVYLQMNSLKPEDTAGYYCATENTPHYASHGYWGQGTQVTVSS | high polyreactivity |
| QVHLVESGGGLVQAGGSLRLSCAASGFTFSTYAMGVSRQAPGKEREWVAAISSGGTTNYADSEKGRFTISRDNAMNTVYLQMNCLKPEDTAVYYCATGYGRWTAYSTSYDYWGQGTQVTVSS | low polyreactivity |
| QVHLVESGGGLVQAGGSLRLSCAASGFTFSYYAMGWYRQPPGKERELVAAITTSGGRTYYADSVKGRFPISRDNAKNTVYLQMNSLKPEDTAVYYCAATYPRYYSGEFDYWGQGTQVTVSS | high polyreactivity |
| QVHLVESGGGLVQAGGSLRLSCAASGFTFTLYAMGWYRQAPGKERELVAAIYFSGGNTYYADSVKGRFTISRDNAKNTVYLQMNSLKPEDTAVYYCAAEYYPSASYYYGWYTIFWLITRDDYYWGQGTQVTVSS | high polyreactivity |
| QVHLVESGGGLVQAGGSLRLSCAASGFTFVSYAMGWYRQAPGKERELVDDINQSGGSTYYADSLKGRFTISRDNAKNTVYLQMNSQKPEDTAVYYCARDGDLWYYKGYGTLFDYWGQGTQVTVSS | low polyreactivity |
| QVHLVESGGGLVQAGGSLRLSCAASGFTFYRTAMGWYRQPPGKERELVAAITRGASTYYADSVKGRFTISRDNAKNNVYLQMNSLKPEDTAVYYCAADRYYYRGRYYGYTREFDYWGQGTQVTVSS | high polyreactivity |
| QVHLVESGGGLVQAGGSLRLSCAASGFTFYSYAMGWYRQAPGKERELVANITIGGSTYADSVKGRFTISRDNAKNTVYLQMNSLKPEDTAVYYCARGYRVVGDPLYGDYDYWGQGTQVTVSS | low polyreactivity |
| QVHLVESGGGLVQAGGSLRLSCAASGFTSQYYAMGWYRQAPGKERELVAAITLRDGSTYYADSVKGRFTISRDNAKNTVYLQMNSLKPEDTAVYYCNTDATSDPYGFGYWGQGTQVTVSS | low polyreactivity |
| QVHLVESGGGLVQAGGSLRLSCAASGGLFTSYDMGWYRQEPGKEREFVAGISDSGGSTYYADSVKGRFTISRDNAKNTVYLQMNSLKPEVTAVYYCAVESYRRYYYWGQGTQVTVSS | high polyreactivity |
| QVHLVESGGGLVQAGGSLRLSCAASGIFSRYAMRWYRQAPGKERELVDAISSGDSTNYADSVKGRFTISRDNAKNTVYLQMNSLKPEDTAVYYCATERSHLASGQGYYYVQTFYYWGQGTKVTVSS | low polyreactivity |
| QVHLVESGGGLVQAGGSLRLSCAASGIIFPSYVMGWYRQAPGKEWELVARISARGGRTYYADSVKGRFTISRDNAKNTVYLQMNSLKPEDTAVYYCAARWGITTWYDYWGQGTQVTVSS | high polyreactivity |
| QVHLVESGGGLVQAGGSLRLSCAASGIIFSDYALGWYRQAPGKERELVAAITSSGCSTYYADSVKGRFTISRDNAKNTVYLQMNSLKPEDTAVYYCNARYRRKSWRPFDYWGQGTQVTVSS | high polyreactivity |
| QVHLVESGGGLVQAGGSLRLSCAASGIIFYANVMGWYRQAPGKERELVAGISRNGGRTYYADSVKGRFTFSRDNAKNTVYLQMICLKPEDTAVYYCAARGSYTSIFDYWGQGTQVTVSS | high polyreactivity |
